Results published in US20230105457A1, “Immunogenic Compounds For Treatment Of Adrenal Cancer” (ENTEROME S.A., priority 2019, published 2023).
Values belong to the molecule of their own block, whether it stands above or below them. Ends that are not written are not given here.

What was measured:
[1] = test system: T2 cell lines loaded with bacterial peptide; assay: Cytotoxic assay of expanded peptide-specific CD8+ T cells (Example 14); format: cell-based, human; details: T cell clones expanded in vitro; flow cytometry readout
From the text: CD8+ T cells expanded per above were used to perform cytotoxic assays in presence of different ratios of target and effector cells to assess their cytotoxic capacity, using flow cytometry readout. Target cells were T2 cell lines loaded with bacterial peptide. Negative control was T2 cells unloaded and T2 cells loaded with irrelevant peptide.

[2] = molecular target: HLA-A*0201 molecule expressed on human tumor cell line T2 (human); assay: T2 cell HLA-A2 stabilisation, FACS; peptide at 10 µM
[3] = molecular target: HLA-A*0201 molecule expressed on human tumor cell line T2 (human); assay: T2 cell HLA-A2 stabilisation, FACS; peptide at 1 µM
[4] = molecular target: HLA-A*0201 molecule expressed on human tumor cell line T2 (human); assay: T2 cell HLA-A2 stabilisation, FACS; peptide at 0.1 µM
[5] = molecular target: HLA-A*0201 molecule expressed on human tumor cell line T2 (human); assay: T2 cell HLA-A2 stabilisation, FACS; 20% of signal of HIV pol 589-597 at 100 µM
[6] = molecular target: T1, HLA-A*0201 molecule expressed on human tumor cell line T2 (human); assay: T2 cell HLA-A2 stabilisation, FACS
T1 construct: surface HLA-A2 read with anti-HLA-A2 antibody BB7.2-PE by FACS; also called HLA-A2

Molecule: FLPFGFILPV [IL13RA2-L]
- Cytotoxic capacity of peptide-specific human T cell clones (in words) [1]: have the capacity to kill T2 cells loaded with the bacteria peptide

- mean relative fluorescence intensity (relative (HIV peptide = 100)) [2]: 84.7
- mean relative fluorescence intensity (relative (HIV peptide = 100)) [3]: 22.1
- mean relative fluorescence intensity (relative (HIV peptide = 100)) [4]: 2.4
- Concentration of peptide that induces 20% of HLA-A2 expression [5]: 0.85 µM
Molecule: reference peptide HIV pol 589-597

- binding result [6]: binds
Molecule: YLYTFLIST [IL13RA2-B2 (SEQ ID NO: 192, Example 3)]
